Reference: the supplement of paper PMC10567573

B1: BTBD10 (parent)
chain: DRKLHSRPRKLYKHSSTSSRIAKG

Variants of: B1
Assay: protein stability index of a GFP-peptide fusion (GPS, HEK-293T) (PSI 1-6); higher = more stable
Conditions: c terminus: a fixed tail appended
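Further: lentivirally expressed fusions sorted by FACS into six bins by GFP to DsRed ratio, PSI derived from sequencing read proportions per bin multiplied by bin number.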

Protein stability index: each site, then its substitutions
L11: T 4.82
S19: A 3.55, I 3.7, Q 3.63, Y 2.62, D 3.93, G 3.57, K 4.18, H 3.5, P 4.34, F 3.23, E 4.42, L 3.45, R 4.53, W 3.22, T 4.4, V 3.65, M 3.07, C 3.62, N 3.58
R9: Q 4.11, H 3.7, K 4.17, T 3.84, V 3.82, P 3.69, N 4.13, L 3.85, Y 3.64, F 3.27, I 3.02, W 3.51, M 3.74, G 4.3, S 4.47
S16: K 2.94, G 3.52, W 3.25, D 3.83, M 4, H 3.55, V 4.03, P 3.87, A 4.32, T 4.35, Q 4.18, E 3.99, F 2.17, I 3.65, R 3.78, Y 3.45, N 4.28, L 3.92, C 3.43
I21: M 3.77, D 4.6, W 3.33, H 4.04, F 3.65, R 3.95, N 4.03, L 3.96, C 3.88, E 4.33, Q 3.36, A 3.5, Y 4.48, G 4.71, K 4.28, V 3.74, P 4.16, S 4.59, T 4.18
S18: Y 2.88, V 4.07, Q 3.95, R 3.63, D 4.13, G 3.99, A 4.42, T 3.65, L 4.3, W 2.71, K 3.4, P 3.93, F 3.04, C 3.27, I 3.54, H 3.6, M 3.63, E 4.38, N 4.36
T17: M 3.28, L 4.48, Q 3.98, C 3.35, G 2.9, F 3.24, K 4.33, I 3.56, V 3.81, W 2.2, R 4.45, E 4.41, P 3.88, N 3.18, H 3.63, A 3.7, S 3.86, D 4.54, Y 3.08
K23: T 3.58, Q 4.1, C 3.17, G 4.08, E 4.08, F 3.56, H 3.41, N 4.61, I 2.92, D 3.78, L 3, A 3.72, W 3.04, V 3.31, Y 2.98, S 3.41, M 2.89, R 3.27, P 3.44
R20: F 3.6, V 3.96, Q 4.2, N 4.21, G 3.62, E 4.04, W 2.97, C 3.39, S 3.85, M 4.06, P 3.6, A 3.9, D 4.28, H 4.24, Y 3.94, I 3.66, L 3.94, K 3.92, T 4.13
